Experiments:
[1] = tested on: mice intravenously injected with HCC827 lung cancer cells (PD-L1+); assay: Biodistribution and biokinetic models in mice with HCC827 lung micrometastases; format: in vivo, Nu/Nu mice
Method: (§1) Under an approved protocol (No. 07-2018-2021), all animal procedures followed the ethical regulations for handling laboratory animals (NOM-062-ZOO-1999) and the Institutional Animal Care and Use Committee requirements. Male Nu/Nu (UPEAL, […], I.PN., Mexico City, Mexico) mice aged 6–8 weeks were maintained in a pathogen-free barrier facility. Mice were injected with 3.7 MBq (50 µL) of ^177Lu DOTA-PD-L1-I or 3.7 kBq (50 µL) of ^225Ac-HEHA-PD-L1-i in the tail vein and sacrificed at 0.5, 1, 3, 24, 72, and 96 h (n = 3). The heart, lungs, liver, pancreas, spleen, kidneys, small intestine, brain, and stomach were dissected to be measured in a NaI(Tl) radioactivity detector. The results are expressed as the percentage of injected dose (%ID) per organ. Blood samples were also extracted, and the activity was recorded as %ID/g. A second group of mice was inoculated intravenously with 1 × 10^6 HCC827 cells. The animals were treated with 3.7 MBq (50 µL) of ^177Lu DOTA-PD-L1-i (n = 3) or 3.7 kBq (50 µL) of ^225Ac-HEHA-PD-L1-i (n = 3) via tail vein injection on day five post-tumor cell inoculation. The animals were dissected as described above. In the case of ^177Lu DOTA-PD-L1-i, radioisotopic/X-ray in vivo/ex vivo images were obtained in a Preclinical Imaging System (Bruker, XTREME). For in vivo imaging, mice were anesthetized with oxygen and 2% isoflurane.
The %ID values were used to obtain the biokinetic models ( qht ). The Ah(t) functions were obtained by decay-correcting the biokinetic models, that is, by adding to the biological constant (λB ) the radioactive constant (λR ), as follows (Equation (1)):(1) At=Be^−(λR+λB)t+Ce^−(λR+λB)t+De^−(λR+λB)t

[2] = tested on: mice inoculated with HCC827 lung cancer cells; assay: Creatinine and liver enzyme levels; format: in vivo
Method: Mouse blood samples collected at 96 h after radiopharmaceutical administration were used for the determination of alanine aminotransferase (ALT), creatinine, and aspartate aminotransferase (AST). Creatinine was measured titrimetrically. The picrate method was used. AST and ALT were quantified using a Roche Diagnostics kit for UV assays.

[3] = Serum stability by radio-HPLC; format: in vitro ADME, human
Method: (§2) The radiochemical purity of the radioconjugates was determined by reversed-phase HPLC (Waters) with radiometric and UV-vis detectors. The analysis was carried out with a Discovery C18 column (particle size: 5 µm, length: 25 cm, diameter: 4.6 mm). A linear gradient (rate flow: 1 mL/min) of CH3CN-0.1% TFA (B)/H2O-0.1%TFA (A), from 100% to 10% of A in 30 min, was used. For ^225Ac-HEHA-PD-L1-i, fractions of 1.0 mL were collected, and the activity was evaluated in a NaI(Tl) detector (Auto In-v-tron 4010; NML Inc., Houston, TX, USA).
(§3) The ^225Ac-HEHA-PD-L1-i and ^177Lu-DOTA-PD-L1-i stability was evaluated in the medium they were obtained after labeling (water/ascorbic acid/sodium acetate) at 0.33, 3, 24, 48, and 72 h with radio-HPLC, as previously described. The conjugate solutions were diluted in human serum (5x) for stability assessment. The conjugates (n = 3) were incubated at 37 °C, and samples were taken at 0.33, 3, 24, 48, and 72 h.

[4] = tested on: kidney and liver tissues from mice; assay: Histopathological assessment (H&E); format: in vivo
Method: Healthy lungs, kidneys, liver, and lungs from mice injected i.v. with HCC827 cells were fixed with 4% paraformaldehyde for 24 h at room temperature, embedded in paraffin, and sectioned in 4–5 µm thick sections using a microtome. Paraffin sections of lung samples were deparaffinized in xylene and rehydrated in a series of graded alcohols. Dewaxed tissue sections were stained with hematoxylin and eosin (H&E). The sections were assessed using a light microscope (magnification of 100x) (Zeiss; Mod. Axioscope: Oberkochen, Germany). Images were acquired with a digital camera (5 MP high-speed color; AmScope; Mod.Mu500: Irvine, CA, USA).

[5] = Stability in labeling medium (water/ascorbic acid/sodium acetate) by radio-HPLC; format: physicochemical; conditions: injectable-grade water/ascorbic acid/sodium acetate; 72 h after labeling (225Ac-HEHA: 72 h after purification); reversed-phase C18 radio-HPLC (225Ac: 1 mL fractions counted in NaI(Tl) detector)
Method: as §2, §3

[6] = tested on: HCC827 human lung cancer cells (PD-L1 positive) vs C6 mouse glioma cells (PD-L1 negative); assay: Cellular uptake assay; format: cell-based; conditions: 1 × 10^5 cells/tube in PBS pH 7, 37 °C, 1 h; 177Lu 4 kBq, 225Ac 0.04 kBq; NaI(Tl) counting; n = 6 / n = 3 (method)
Method: HCC827 human lung cancer (PD-L1 positive) and C6 mouse glioma (PD-L1 negative) cell lines were cultured in RPMI-1640 medium with penicillin and streptomycin (100 µg/mL) and fetal bovine serum (15%) in 5% CO2 at 37 °C. Cells diluted in PBS (pH 7) (1 × 10^5 cells/tube) received two different treatments: (a) ^177Lu-DOTA-PD-L1-i (4 kBq) (n = 3) and (b) ^225Ac-HEHA-PD-L1-i (0.04 kBq) (n = 3). Cells were incubated with each treatment at 37 °C for 1 h. After incubation, tubes were measured in a NaI(Tl) detector to determine the initial activity (100%). The tubes were centrifuged at 500× g for 10 min. Then, a mixture of acetic acid/0.5 M NaCl was added, and the centrifugation was repeated. The liquid was removed, and the button activity was measured, corresponding to the percentage of activity captured by the cells regarding the initial activity.

HCC827 cells = assay: Cell viability assay (flow cytometry, Muse Count & Viability Kit); format: cell-based, human; conditions: 5 h
Method: The effect of ^177Lu DOTA-PD-L1-i, ^225Ac-HEHA-PD-L1-i, and PD-L1-i on HCC827 cell viability (5 × 10^4) was determined by flow cytometry with the Muse® Count & Viability Kit from Luminex, DiaSorin, USA. Before taking readings with the Muse Cell Analyzer (Merck Millipore, Burlington, MA, USA) previously calibrated with the Muse® System Check kit, the baseline detection was established using a fresh sample of untreated cells that served to delimit the size and granularity of the cell line, as well as the basal viability of the population. Also, the reading window for dead cells was established using an aliquot of the same population treated with 0.5% Triton-X100. Once the detection window for the HCC827 cells was established to discriminate between live and dead cells, 50 µL (2 × 10^4 cells/200 µL) were taken from the cell suspension that had been treated with cold ligand (PD-L1-i, 0.1 µg), with 1.4 MBq of ^177Lu DOTA-PD-L1-i or 0.37 kBq of ^225Ac-HEHA-PD-L1-i for 5 h and then mixed with 450 µL of the viability reagent; after 5 min incubation at room temperature and in the dark, the samples were read in triplicate. For the calculation of the radiation absorbed dose to cell nuclei, the total number of nuclear transformations (N) normalized to the unit of administered activity (Bq^.s/Bq) was obtained with the A(t) mathematical integration (from t = 0 to t = 5 h). […]

[7] = tested on: lungs of athymic mice with or without HCC827 lung micrometastases; assay: Radioisotopic/X-ray imaging; format: in vivo
Method: as §1

healthy mice = assay: Biodistribution in healthy mice; format: in vivo, Nu/Nu mice; conditions: tail vein, 3.7 MBq 177Lu or 3.7 kBq 225Ac, 0.5-96 h, n = 3
Method: as §1

[8] = lungs invaded with HCC827 cancer cells
[9] = ex vivo lungs, radioisotopic imaging

CCCC[C@H]1C(=O)N(C)[C@@H](CCCC)C(=O)N[C@@H](CCCNC(=S)Nc2ccc(CC3CN(CC(=O)O)CCN(CC(=O)O)CCN(CC(=O)O)CCN(CC(=O)O)CCN(CC(=O)O)CCN3CC(=O)O)cc2)C(=O)N[C@H](C(=O)NCC(N)=O)CSCC(=O)N[C@@H](Cc2ccc(O)cc2)C(=O)N(C)[C@@H](C)C(=O)N[C@@H](CC(N)=O)C(=O)N2CCC[C@H]2C(=O)N[C@@H](Cc2c[nH]cn2)C(=O)N[C@@H](CC(C)C)C(=O)N2C[C@H](O)C[C@H]2C(=O)N[C@@H](Cc2c[nH]c3ccccc23)C(=O)N[C@@H](CO)C(=O)N[C@@H](Cc2cn(C)c3ccccc23)C(=O)N1C (stereo partly shown) [^225Ac-HEHA-PD-L1-i, metal not drawn]
Ac-225 activity present in bone ([1]; mouse, in vivo): 0.3 ± 0.2 % ID/g
biokinetic model A(t), kidney ([1]; mouse, in vivo): 12.60e^-3.65t + 8.14e^-2.54t
biokinetic model A(t), liver ([1]; mouse, in vivo): 25.3e^-1.90t + 17.4e^-0.01t
biokinetic model A(t), lung (HCC827 cancer cells) ([1]; mouse, in vivo): 11.20e^-0.002t + 1.73e^-1.20t
half-life, kidney, second component ([1]; mouse, in vivo): 0.27 h
injected dose in kidney eliminated with half-life 0.19 h ([1]; mouse, in vivo): 12.6 % of the injected dose
injected dose in kidney eliminated with half-life 0.27 h ([1]; mouse, in vivo): 8.14 % of the injected dose
injected dose retained in liver and eliminated with the slow half-life ([1]; mouse, in vivo): 17.4 % of the injected dose
half-life, kidney, fast phase ([1]; mouse, in vivo, iv): 0.19 h
half-life, liver, slow phase ([1]; mouse, in vivo, iv): 69.3 h
uptake in lung micrometastases ([1]; mouse, in vivo, iv): > 30 % ID
effect on the function of liver and kidney ([2]; mouse, in vivo): No significant cytotoxic effect
radiochemical purity after 72 h in human serum [3]: 64 ± 4%
rate of decrease of radiochemical purity in human serum [3]: approximately 0.388 %/h
histological staining (H&E) of liver and kidney ([4]; mouse, in vivo): no pathologic changes in the liver and kidney

CCCC[C@H]1C(=O)N(C)[C@@H](CCCC)C(=O)N[C@@H](CCCNC(=S)Nc2ccc(C[C@H]3CN(CC(=O)O)CCN(CC(=O)O)CCN(CC(=O)O)CCN3CC(=O)O)cc2)C(=O)N[C@H](C(=O)NCC(N)=O)CSCC(=O)N[C@@H](Cc2ccc(O)cc2)C(=O)N(C)[C@@H](C)C(=O)N[C@@H](CC(N)=O)C(=O)N2CCC[C@H]2C(=O)N[C@@H](Cc2c[nH]cn2)C(=O)N[C@@H](CC(C)C)C(=O)N2C[C@H](O)C[C@H]2C(=O)N[C@@H](Cc2c[nH]c3ccccc23)C(=O)N[C@@H](CO)C(=O)N[C@@H](Cc2cn(C)c3ccccc23)C(=O)N1C [^177Lu-DOTA-PD-L1-i, metal not drawn]
λ, kidney, fast phase ([1]; kidneys, biokinetic model): 3.65
λ, kidney, slow elimination slope ([1]; kidneys, biokinetic model): 0.009
half-life, kidney, slow elimination slope ([1]; kidneys, t1/2 = ln2/λ): 77 h
half-life, kidney, fast phase ([1]; kidneys, t1/2 = ln2/λ, 177Lu 3.7 MBq, 225Ac 3.7 kBq i.v.): 0.19 h
λ, liver, fast phase ([1]; liver, biokinetic model): 1.23
λ, liver, slow phase ([1]; liver, biokinetic model): 0.01
fraction of activity taken up in the liver cleared rapidly ([1]; liver, fast phase (hepatobiliary elimination), 3.7 MBq i.v.): seventy-four
fraction of activity taken up in the liver cleared slowly ([1]; liver, slow phase): twenty-six
half-life, liver, fast phase ([1]; liver, t1/2 = ln2/λ): 0.56 h
half-life, liver, slow phase ([1]; liver, t1/2 = ln2/λ, 177Lu 3.7 MBq, 225Ac 3.7 kBq i.v.): 69 h
fraction of lung uptake activity with the long half-life [1, 8]: Ninety
fraction of lung uptake activity with the short half-life [1, 8]: ten
half-life, lung, long component [1, 8]: 346.5 h
half-life, lung, short component [1, 8]: 17.3 h
radiochemical purity after 72 h in water [5]: greater than 97.5 ± 0.5%
Creatinine ([2]; 96 h after 3.7 MBq 177Lu or 3.7 kBq 225Ac, day 5 after i.v. HCC827 inoculation, mean ± SD, n = 3, control 0.198 ± 0.057): 0.199 ± 0.062 mg/dL
Alanine Aminotransferase (ALT) ([2]; 96 h after 3.7 MBq 177Lu or 3.7 kBq 225Ac, day 5 after i.v. HCC827 inoculation, mean ± SD, n = 3, control 71 ± 7): 68 ± 4 IU/L
Aspartate Aminotransferase (AST) ([2]; 96 h after 3.7 MBq 177Lu or 3.7 kBq 225Ac, day 5 after i.v. HCC827 inoculation, mean ± SD, n = 3, control 150 ± 13): 143 ± 14 IU/L
effect on the function of liver and kidney ([2]; ALT, creatinine, AST vs control group (Table A1)): No significant cytotoxic effect
uptake in HCC827 cells relative to C6 cells [6]: approximately fourteen
remaining at 72 h ([3]; diluted in human serum (5x), 37 °C, 72 h, reversed-phase C18 radio-HPLC, n = 3, read-out: radiochemical purity after 72 h in human serum): > 97.5%
net decrease in alive cells regarding the control group (representative histogram) (HCC827 cells; 177Lu 15 Gy, 225Ac 5 Gy): 30%
net decrease viability (HCC827 cells; 177Lu-DOTA-PD-L1-i 15 Gy (1.4 MBq/20,000 cells), 225Ac-HEHA-PD-L1-i 5 Gy (0.37 kBq/20,000 cells), PD-L1-i 0.1 µg/20,000 cells, read in triplicate): 31.42 ± 2.01%
lung uptake pattern, average number of emitted photons per normalized area, mice in which metastases were not induced [7, 9]: 78 ± 32 photons/cm^2
lung uptake pattern, average number of emitted photons per normalized area, mice with metastatic HCC827 cells [7, 9]: 298 ± 82 photons/cm^2
tissue accumulation in radioisotopic images ([7]; in vivo and ex vivo, athymic mice with lung micrometastases, 30 min, 24 and 72 h): the only tissue that accumulated the radiotracer was the lung invaded by HCC827 cancer cells
histological staining (H&E) of liver and kidney ([4]; mice exposed to the radiopharmaceuticals): no pathologic changes in the liver and kidney
biodistribution profile in healthy mice (healthy mice): rapid blood clearance with renal and hepatobiliary elimination and no accumulation in normal tissues
